Assay results from article PMC12331092, “An arginine switch drives the stepwise activation of β-arrestin by CXCR7” (PLOS Biology, 2025).
Blank lines part the entries; values can stand above or below the binder they belong to. Square brackets hold non-standard residues; d marks the D form. Ends that are not written are not given here. pT = C[C@@H](OP(=O)(O)O)[C@H](N)C(=O)O; pS = N[C@@H](COP(=O)(O)O)C(=O)O

Assays:
Settings in all cases: both partners purified
βarr2 R166A mutant = biological target: T1, βarr2 R166A mutant (Rattus norvegicus, UniProt P29067 1-410, R166A); assay: ITC; 1 mM peptide injected (2.5 μL, 200 s intervals) into 200 μM βarr2 in the cell; 298 K; 20 mM HEPES pH 7.0, 200 mM NaCl; two-site model for the wild type
T1 construct: β-arrestin2, rat (as the wild type m1), with R166A; also called R166A (site I); source: purified
T1 sequence (P29067 whole entry R166A): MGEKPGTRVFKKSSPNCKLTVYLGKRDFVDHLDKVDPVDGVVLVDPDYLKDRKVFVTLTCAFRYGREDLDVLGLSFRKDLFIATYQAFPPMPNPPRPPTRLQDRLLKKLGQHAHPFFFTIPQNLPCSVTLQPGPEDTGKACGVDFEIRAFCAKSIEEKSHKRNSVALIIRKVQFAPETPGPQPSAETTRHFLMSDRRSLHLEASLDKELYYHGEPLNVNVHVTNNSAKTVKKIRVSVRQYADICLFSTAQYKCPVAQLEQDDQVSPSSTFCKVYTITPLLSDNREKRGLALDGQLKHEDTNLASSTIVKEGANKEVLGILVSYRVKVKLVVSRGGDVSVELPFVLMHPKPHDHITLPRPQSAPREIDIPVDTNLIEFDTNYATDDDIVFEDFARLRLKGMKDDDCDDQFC

βarr2 R394A mutant = biological target: T2, βarr2 R394A mutant (Rattus norvegicus, UniProt P29067 1-410, R394A); assay: as above
T2 construct: β-arrestin2, rat (as the wild type m1), with R394A; also called R394A (site II); source: purified
T2 sequence (P29067 whole entry R394A): as the sequence (P29067 whole entry R166A) above, with A166R, R394A counted along it

[1] = biological target: T3, Rattus norvegicus wild-type β-arrestin2 (Rattus norvegicus, UniProt P29067 1-410); assay: as above
T3 construct: β-arrestin2, Rattus norvegicus, UniProt P29067, cloned into pET-28a; also called βarr2; wild-type βarr2; source: E. coli BL21(DE3)pLysS, purified (Ni-sepharose, HiTrap heparin, Superdex 200 gel filtration); not shown: His6, N-terminal, kept
T3 sequence (P29067 whole entry): as the sequence (P29067 whole entry R166A) above, with A166R counted along it

[2] = biological target: T3, Rattus norvegicus wild-type β-arrestin2; assay: pull-down; 20 μg βarr2 pre-incubated with or without peptide (5:1 peptide:βarr2, 4 °C, 1 h), then GST beads with 30 μg GST-clathrin, 2 h at 4 °C; 20 mM Tris-HCl pH 8.0, 100 mM NaCl, 1 mM DTT; GSH elution, anti-His Western blot

Kd (βarr2 R166A mutant): 16.4 µM | Kd (βarr2 R394A mutant): 1.1 µM | binding result [1]: binds
B1: C7pp2, phosphopeptide from the carboxyl terminus of CXCR7 (residues 346-359) (peptide, UniProt P25106 346-359, looked up)
peptide: ASRV[pS]E[pT]EY[pS]ALEQ
notes: CXCR7 (atypical chemokine receptor), C-terminal residues 346-359; also called distal phospho-site cluster PxPxxP; source: synthetic peptide (NovoPep and Tufts University Core Facility)

binding result [2]: binds
B2: C7pp3, phosphopeptide from the carboxyl terminus of CXCR7 (residues 346-362) (peptide, UniProt P25106 346-362, looked up)
peptide: A[pS]RV[pS]E[pT]EY[pS]ALEQ[pS][pT]K
notes: CXCR7, C-terminal residues 346-362; source: synthetic peptide (NovoPep and Tufts University Core Facility)
